Reference: IntAct's records for PubMed 31515488

B1: TBC1 domain family member 7 (Homo sapiens), Q9P0N9 (parent)
chain: MTEDSQRNFRSVYYEKVGFRGVEEKKSLEILLKDDRLDTEKLCTFSQRFPLPSMYRALVWKVLLGILPPHHESHAKVMMYRKEQYLDVLHALKVVRFVSDATPQAEVYLRMYQLESGKLPRSPSFPLEPDDEVFLAIAKAMEEMVEDSVDCYWITRRFVNQLNTKYRDSLPQLPKAFEQYLNLEDGRLLTHLRMCSAAPKLPYDLWFKRCFAGCLPESSLQRVWDKVVSGSCKILVFVAVEILLTFKIKVMALNSAEKITKFLENIPQDSSDAIVSKAIDLWHKHCGTPVHSS
partner: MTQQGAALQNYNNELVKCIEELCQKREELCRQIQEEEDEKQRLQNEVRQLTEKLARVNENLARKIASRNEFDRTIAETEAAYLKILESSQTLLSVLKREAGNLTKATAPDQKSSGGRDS
B2: Zinc finger protein 511 (Homo sapiens), Q8NB15 (parent)
chain: MQLPPALCARLAAGPGAAEPLPVERDPAAGAAPFRFVARPVRFPREHQFFEDGDVQRHLYLQDVIMQVADVPEKPRVPAFACQVAGCCQVFDALDDYEHHYHTLHGNVCSFCKRAFPSGHLLDAHILEWHDSLFQILSERQDMYQCLVEGCTEKFKTSRDRKDHMVRMHLYPADFRFDKPKKSRSPASAEAPGDSGERSEGEAMEICSEPVAASPAPAGERRIYRHRIPSTICFGQGAARGFKSNKKKTKQC
partner: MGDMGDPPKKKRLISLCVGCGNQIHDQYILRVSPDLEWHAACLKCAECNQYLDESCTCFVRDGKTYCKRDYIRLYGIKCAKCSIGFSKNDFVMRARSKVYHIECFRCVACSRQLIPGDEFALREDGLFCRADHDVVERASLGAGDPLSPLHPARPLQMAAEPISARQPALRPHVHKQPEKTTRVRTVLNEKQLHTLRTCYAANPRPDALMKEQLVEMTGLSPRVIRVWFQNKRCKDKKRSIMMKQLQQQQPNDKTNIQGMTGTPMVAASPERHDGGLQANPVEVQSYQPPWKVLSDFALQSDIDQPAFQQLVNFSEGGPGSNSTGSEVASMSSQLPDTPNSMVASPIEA
B3: Protein transport protein (Homo sapiens), Q15437 (parent)
chain: MATYLEFIQQNEERDGVRFSWNVWPSSRLEATRMVVPLACLLTPLKERPDLPPVQYEPVLCSRPTCKAVLNPLCQVDYRAKLWACNFCFQRNQFPPAYGGISEVNQPAELMPQFSTIEYVIQRGAQSPLIFLYVVDTCLEEDDLQALKESLQMSLSLLPPDALVGLITFGRMVQVHELSCEGISKSYVFRGTKDLTAKQIQDMLGLTKPAMPMQQARPAQPQEHPFASSRFLQPVHKIDMNLTDLLGELQRDPWPVTQGKRPLRSTGVALSIAVGLLEGTFPNTGARIMLFTGGPPTQGPGMVVGDELKIPIRSWHDIEKDNARFMKKATKHYEMLANRTAANGHCIDIYACALDQTGLLEMKCCANLTGGYMVMGDSFNTSLFKQTFQRIFTKDFNGDFRMAFGATLDVKTSRELKIAGAIGPCVSLNVKGPCVSENELGVGGTSQWKICGLDPTSTLGIYFEVVNQHNTPIPQGGRGAIQFVTHYQHSSTQRRIRVTTIARNWADVQSQLRHIEAAFDQEAAAVLMARLGVFRAESEEGPDVLRWLDRQLIRLCQKFGQYNKEDPTSFRLSDSFSLYPQFMFHLRRSPFLQVFNNSPDESSYYRHHFARQDLTQSLIMIQPILYSYSFHGPPEPVLLDSSSILADRILLMDTFFQIVIYLGETIAQWRKAGYQDMPEYENFKHLLQAPLDDAQEILQARFPMPRYINTEHGGSQARFLLSKVNPSQTHNNLYAWGQETGAPILTDDVSLQVFMDHLKKLAVSSAC
partner: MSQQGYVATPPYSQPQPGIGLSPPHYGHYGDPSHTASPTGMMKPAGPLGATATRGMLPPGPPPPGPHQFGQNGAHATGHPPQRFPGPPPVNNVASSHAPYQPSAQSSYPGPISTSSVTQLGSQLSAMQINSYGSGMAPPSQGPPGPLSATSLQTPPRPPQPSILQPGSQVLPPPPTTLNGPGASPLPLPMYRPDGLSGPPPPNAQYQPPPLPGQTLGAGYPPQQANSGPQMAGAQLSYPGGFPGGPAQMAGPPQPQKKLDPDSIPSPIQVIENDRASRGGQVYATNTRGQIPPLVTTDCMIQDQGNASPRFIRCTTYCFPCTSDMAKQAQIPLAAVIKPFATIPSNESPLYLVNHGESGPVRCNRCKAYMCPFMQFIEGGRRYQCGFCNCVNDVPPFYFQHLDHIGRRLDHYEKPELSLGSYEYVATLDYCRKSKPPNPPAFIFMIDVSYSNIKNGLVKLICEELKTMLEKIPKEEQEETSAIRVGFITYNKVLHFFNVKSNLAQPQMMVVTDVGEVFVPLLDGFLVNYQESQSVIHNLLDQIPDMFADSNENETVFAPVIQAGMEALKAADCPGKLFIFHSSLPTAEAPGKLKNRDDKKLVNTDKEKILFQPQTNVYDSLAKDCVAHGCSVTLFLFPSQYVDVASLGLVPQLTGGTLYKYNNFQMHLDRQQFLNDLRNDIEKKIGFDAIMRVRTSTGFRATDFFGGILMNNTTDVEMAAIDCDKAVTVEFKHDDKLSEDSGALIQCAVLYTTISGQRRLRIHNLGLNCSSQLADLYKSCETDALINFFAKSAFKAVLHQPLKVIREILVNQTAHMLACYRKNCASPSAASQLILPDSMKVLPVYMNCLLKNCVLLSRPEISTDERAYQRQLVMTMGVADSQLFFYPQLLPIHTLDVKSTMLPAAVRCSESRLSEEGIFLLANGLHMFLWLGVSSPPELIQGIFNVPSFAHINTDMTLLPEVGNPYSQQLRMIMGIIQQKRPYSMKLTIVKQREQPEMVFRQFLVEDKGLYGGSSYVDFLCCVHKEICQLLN
B4: Protein FAM9B (Homo sapiens), Q8IZU0 (parent)
chain: MAAWGKKHAGKDPVRDECEERNRFTETREEDVTDEHGEREPFAETDEHTGANTKKPEDTAEDLTAKRKRMKMDKTCSKTKNKSKHALRKKQLKRQKRDYIHSLKLLNVLEEYITDEQKEEEEEEGEEEELIRIFQEQQKKWQQYRSVRRERLKEMKLLRDQFVKALEDFEDLCDRVFSDEDSELDN
partner: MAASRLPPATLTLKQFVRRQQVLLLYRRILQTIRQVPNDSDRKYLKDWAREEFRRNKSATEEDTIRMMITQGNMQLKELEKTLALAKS

Variants of: B1
Conditions: with ssna1_human SSNA1, O43805

Variant	effect of a mutation on the interaction
MTEDSQRNFRSVYYEKVGFRGVEEKKSLEILLKDDRLDTEKLCTFSQRFPLPSMYRALVWKVLLGIWPPHHESHAKVMMYRKEQYLDVLHALKVVRFVSDATPQAEVYLRMYQLESGKLPRSPSFPLEPDDEVFLAIAKAMEEMVEDSVDCYWITRRFVNQLNTKYRDSLPQLPKAFEQYLNLEDGRLLTHLRMCSAAPKLPYDLWFKRCFAGCLPESSLQRVWDKVVSGSCKILVFVAVEILLTFKIKVMALNSAEKITKFLENIPQDSSDAIVSKAIDLWHKHCGTPVHSS [L67W]	disrupting interaction strength

Variants of: B2
Conditions: with isl1_human ISL1, P61371

Variant	effect of a mutation on the interaction
MQLPPALCARLAAGPGAAEPLPVERDPAAGAAPFRFVARPVRFPREHQFFEDGDVQRHLYLQDVIMQVADVPEKPRVPAFACQVAGCCQVFDALDDYEHHYHTLHGNVCSFCKRAFPSGHLLDAHILEWHDSLFQILSERQDMYQCLVEGCTEKFKTSRDRKDHMVRMHLYPADFRFDKPKKSRSPASAEAPGDNGERSEGEAMEICSEPVAASPAPAGERRIYRHRIPSTICFGQGAARGFKSNKKKTKQC [S195N]	with no effect

Variants of: B3
Conditions: with sc24d_human SEC24D

Variant	effect of a mutation on the interaction
V426I	with no effect

Variants of: B4
Conditions: with lyrm2_human LYRM2, Q9NU23

Variant	effect of a mutation on the interaction
R23H	with no effect
